Experimental data: IntAct's records for PubMed 16778768

B1: High osmolarity signaling protein SHO1 (Saccharomyces cerevisiae), P40073 (parent)
chain: MSISSKIRPTPRKPSRMATDHSFKMKKFYADPFAISSISLAIVSWVIAIGGSISSASTNESFPRFTWWGIVYQFLIICSLMLFYCFDLVDHYRIFITTSIAVAFVYNTNSATNLVYADGPKKAAASAGVILLSIINLIWILYYGGDNASPTNRWIDSFSIKGIRPSPLENSLHRARRRGNRNTTPYQNNVYNDAIRDSGYATQFDGYPQQQPSHTNYVSSTALAGFENTQPNTSEAVNLHLNTLQQRINSASNAKETNDNSNNQTNTNIGNTFDTDFSNGNTETTMGDTLGLYSDIGDDNFIYKAKALYPYDADDDDAYEISFEQNEILQVSDIEGRWWKARRANGETGIIPSNYVQLIDGPEEMHR
partner: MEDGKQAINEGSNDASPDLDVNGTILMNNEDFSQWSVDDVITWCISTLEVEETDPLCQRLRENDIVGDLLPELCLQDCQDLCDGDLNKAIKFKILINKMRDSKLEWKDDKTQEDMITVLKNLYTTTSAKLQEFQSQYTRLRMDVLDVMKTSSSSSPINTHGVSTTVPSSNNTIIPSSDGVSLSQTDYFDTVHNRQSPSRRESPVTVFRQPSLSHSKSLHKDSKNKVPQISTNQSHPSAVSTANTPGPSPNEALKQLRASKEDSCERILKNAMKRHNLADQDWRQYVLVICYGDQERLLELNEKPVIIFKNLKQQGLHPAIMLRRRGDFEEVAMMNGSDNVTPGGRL
B2: High osmolarity signaling protein SHO1 (Saccharomyces cerevisiae), P40073 (parent)
chain: B1 chain
partner: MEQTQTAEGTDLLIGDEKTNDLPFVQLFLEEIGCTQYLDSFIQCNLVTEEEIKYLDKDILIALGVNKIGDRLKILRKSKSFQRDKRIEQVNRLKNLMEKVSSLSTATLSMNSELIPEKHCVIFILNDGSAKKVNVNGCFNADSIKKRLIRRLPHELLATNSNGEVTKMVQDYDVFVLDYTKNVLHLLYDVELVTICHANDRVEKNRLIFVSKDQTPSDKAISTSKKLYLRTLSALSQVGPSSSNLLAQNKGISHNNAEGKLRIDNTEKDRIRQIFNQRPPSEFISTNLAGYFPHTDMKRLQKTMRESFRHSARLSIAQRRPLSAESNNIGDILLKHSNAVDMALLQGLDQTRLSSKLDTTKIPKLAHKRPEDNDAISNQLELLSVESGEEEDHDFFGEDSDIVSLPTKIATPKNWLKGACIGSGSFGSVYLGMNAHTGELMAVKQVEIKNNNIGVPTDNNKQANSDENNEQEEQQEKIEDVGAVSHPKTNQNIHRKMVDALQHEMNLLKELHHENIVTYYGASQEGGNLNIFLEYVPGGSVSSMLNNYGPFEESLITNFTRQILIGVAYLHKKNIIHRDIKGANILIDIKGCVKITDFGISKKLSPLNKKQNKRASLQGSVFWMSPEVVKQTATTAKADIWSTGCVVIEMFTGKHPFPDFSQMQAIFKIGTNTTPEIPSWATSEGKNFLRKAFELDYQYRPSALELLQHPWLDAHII

Variants of: B1
Details: with ste50_yeast STE50, P25344

Variant	effect of a mutation on the interaction
R342G	increasing interaction
G346S	increasing interaction

Variants of: B2
Details: with ste11_yeast STE11, P23561

Variant	effect of a mutation on the interaction
R342G	increasing interaction
G346S	increasing interaction
